Data as given in US20120122239A1.

Experiments:
[1] = molecular target: human pro B-type natriuretic peptide (HyTest, Turku, Finland; Catalog No. 8PRO8) (human); experiment: sandwich CMIA, capture 15C4, analyte 43.3 pM
[2] = molecular target: human NT-pro B-type natriuretic peptide (HyTest, Turku, Finland; Catalog No. 8NT1) (human); experiment: sandwich CMIA, capture 15C4, analyte 43.3 pM
[3] = molecular target: glycosylated human proBNP (HyTest, Turku, Finland; Catalog No. 8GOB2) (human); experiment: sandwich CMIA, capture 15C4, analyte 43.3 pM
Sequence of glycosylated human proBNP (HyTest, Turku, Finland; Catalog No. 8GOB2) (human) (chain, as listed by the source): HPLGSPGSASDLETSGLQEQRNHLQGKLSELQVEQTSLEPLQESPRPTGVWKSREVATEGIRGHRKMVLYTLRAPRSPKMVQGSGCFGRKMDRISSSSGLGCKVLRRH

[4] = molecular target: human pro B-type natriuretic peptide (HyTest, Turku, Finland; Catalog No. 8PRO8) (human); experiment: sandwich CMIA, capture 15C4, 577.4 pM, against human NT-proBNP
[5] = molecular target: glycosylated human proBNP (HyTest, Turku, Finland; Catalog No. 8GOB2) (human); experiment: as above
[6] = molecular target: human pro B-type natriuretic peptide (HyTest, Turku, Finland; Catalog No. 8PRO8) (human); experiment: sandwich CMIA, capture 15C4, analyte 0.0 pM (blank)
[7] = molecular target: human NT-pro B-type natriuretic peptide (HyTest, Turku, Finland; Catalog No. 8NT1) (human); experiment: as above
[8] = molecular target: glycosylated human proBNP (HyTest, Turku, Finland; Catalog No. 8GOB2) (human); experiment: as above
[9] = molecular target: human pro B-type natriuretic peptide (HyTest, Turku, Finland; Catalog No. 8PRO8) (human); experiment: sandwich CMIA, capture 15C4, analyte 86.6 pM
[10] = molecular target: human NT-pro B-type natriuretic peptide (HyTest, Turku, Finland; Catalog No. 8NT1) (human); experiment: sandwich CMIA, capture 15C4, analyte 86.6 pM
[11] = molecular target: glycosylated human proBNP (HyTest, Turku, Finland; Catalog No. 8GOB2) (human); experiment: sandwich CMIA, capture 15C4, analyte 86.6 pM
[12] = molecular target: human pro B-type natriuretic peptide (HyTest, Turku, Finland; Catalog No. 8PRO8) (human); experiment: sandwich CMIA, capture 15C4, 288.7 pM, against human NT-proBNP
[13] = molecular target: glycosylated human proBNP (HyTest, Turku, Finland; Catalog No. 8GOB2) (human); experiment: as above
[14] = molecular target: human pro B-type natriuretic peptide (HyTest, Turku, Finland; Catalog No. 8PRO8) (human); experiment: sandwich CMIA, capture 15C4, 86.6 pM, against human NT-proBNP
[15] = molecular target: glycosylated human proBNP (HyTest, Turku, Finland; Catalog No. 8GOB2) (human); experiment: as above
[16] = molecular target: human pro B-type natriuretic peptide (HyTest, Turku, Finland; Catalog No. 8PRO8) (human); experiment: sandwich CMIA, capture 15F11, analyte 577.4 pM
[17] = molecular target: human NT-pro B-type natriuretic peptide (HyTest, Turku, Finland; Catalog No. 8NT1) (human); experiment: sandwich CMIA, capture 15F11, analyte 577.4 pM
[18] = molecular target: glycosylated human proBNP (HyTest, Turku, Finland; Catalog No. 8GOB2) (human); experiment: sandwich CMIA, capture 15F11, analyte 577.4 pM
[19] = molecular target: human pro B-type natriuretic peptide (HyTest, Turku, Finland; Catalog No. 8PRO8) (human); experiment: sandwich CMIA, 15C4 (63-71) with 16F3 (13-20), against human NT-proBNP
[20] = molecular target: human pro B-type natriuretic peptide (HyTest, Turku, Finland; Catalog No. 8PRO8) (human); experiment: sandwich CMIA, capture 15C4, analyte 577.4 pM
[21] = molecular target: human NT-pro B-type natriuretic peptide (HyTest, Turku, Finland; Catalog No. 8NT1) (human); experiment: sandwich CMIA, capture 15C4, analyte 577.4 pM
[22] = molecular target: glycosylated human proBNP (HyTest, Turku, Finland; Catalog No. 8GOB2) (human); experiment: sandwich CMIA, capture 15C4, analyte 577.4 pM
[23] = molecular target: human pro B-type natriuretic peptide (HyTest, Turku, Finland; Catalog No. 8PRO8) (human); experiment: sandwich CMIA, capture 15C4, 43.3 pM, against human NT-proBNP
[24] = molecular target: glycosylated human proBNP (HyTest, Turku, Finland; Catalog No. 8GOB2) (human); experiment: as above
[25] = molecular target: human pro B-type natriuretic peptide (HyTest, Turku, Finland; Catalog No. 8PRO8) (human); experiment: sandwich CMIA, capture 15C4, analyte 288.7 pM
[26] = molecular target: human NT-pro B-type natriuretic peptide (HyTest, Turku, Finland; Catalog No. 8NT1) (human); experiment: sandwich CMIA, capture 15C4, analyte 288.7 pM
[27] = molecular target: glycosylated human proBNP (HyTest, Turku, Finland; Catalog No. 8GOB2) (human); experiment: sandwich CMIA, capture 15C4, analyte 288.7 pM
[28] = molecular target: human pro B-type natriuretic peptide (HyTest, Turku, Finland; Catalog No. 8PRO8) (human); experiment: sandwich CMIA, capture 15F11, analyte 0.0 pM (blank)
[29] = molecular target: human NT-pro B-type natriuretic peptide (HyTest, Turku, Finland; Catalog No. 8NT1) (human); experiment: as above
[30] = molecular target: glycosylated human proBNP (HyTest, Turku, Finland; Catalog No. 8GOB2) (human); experiment: as above
[31] = molecular target: human pro B-type natriuretic peptide (HyTest, Turku, Finland; Catalog No. 8PRO8) (human); experiment: sandwich CMIA, capture 15F11, analyte 43.3 pM
[32] = molecular target: human NT-pro B-type natriuretic peptide (HyTest, Turku, Finland; Catalog No. 8NT1) (human); experiment: sandwich CMIA, capture 15F11, analyte 43.3 pM
[33] = molecular target: glycosylated human proBNP (HyTest, Turku, Finland; Catalog No. 8GOB2) (human); experiment: sandwich CMIA, capture 15F11, analyte 43.3 pM
[34] = molecular target: human pro B-type natriuretic peptide (HyTest, Turku, Finland; Catalog No. 8PRO8) (human); experiment: sandwich CMIA, capture 15F11, analyte 86.6 pM
[35] = molecular target: human NT-pro B-type natriuretic peptide (HyTest, Turku, Finland; Catalog No. 8NT1) (human); experiment: sandwich CMIA, capture 15F11, analyte 86.6 pM
[36] = molecular target: glycosylated human proBNP (HyTest, Turku, Finland; Catalog No. 8GOB2) (human); experiment: sandwich CMIA, capture 15F11, analyte 86.6 pM
[37] = molecular target: human pro B-type natriuretic peptide (HyTest, Turku, Finland; Catalog No. 8PRO8) (human); experiment: sandwich CMIA, capture 15F11, analyte 288.7 pM
[38] = molecular target: human NT-pro B-type natriuretic peptide (HyTest, Turku, Finland; Catalog No. 8NT1) (human); experiment: sandwich CMIA, capture 15F11, analyte 288.7 pM
[39] = molecular target: glycosylated human proBNP (HyTest, Turku, Finland; Catalog No. 8GOB2) (human); experiment: sandwich CMIA, capture 15F11, analyte 288.7 pM
[40] = molecular target: human pro B-type natriuretic peptide (HyTest, Turku, Finland; Catalog No. 8PRO8) (human); experiment: sandwich CMIA, capture 15F11, 288.7 pM, against human NT-proBNP
[41] = molecular target: glycosylated human proBNP (HyTest, Turku, Finland; Catalog No. 8GOB2) (human); experiment: as above
[42] = molecular target: human pro B-type natriuretic peptide (HyTest, Turku, Finland; Catalog No. 8PRO8) (human); experiment: sandwich CMIA, capture 15F11, 43.3 pM, against human NT-proBNP
[43] = molecular target: glycosylated human proBNP (HyTest, Turku, Finland; Catalog No. 8GOB2) (human); experiment: as above
[44] = molecular target: human pro B-type natriuretic peptide (HyTest, Turku, Finland; Catalog No. 8PRO8) (human); experiment: sandwich CMIA, capture 15F11, 577.4 pM, against human NT-proBNP
[45] = molecular target: glycosylated human proBNP (HyTest, Turku, Finland; Catalog No. 8GOB2) (human); experiment: as above
[46] = molecular target: human pro B-type natriuretic peptide (HyTest, Turku, Finland; Catalog No. 8PRO8) (human); experiment: sandwich CMIA, capture 15F11, 86.6 pM, against human NT-proBNP
[47] = molecular target: glycosylated human proBNP (HyTest, Turku, Finland; Catalog No. 8GOB2) (human); experiment: as above
[48] = molecular target: human pro B-type natriuretic peptide (HyTest, Turku, Finland; Catalog No. 8PRO8) (human); experiment: sandwich CMIA, capture 15F11, against human NT-proBNP

Sequence of human NT-pro B-type natriuretic peptide (HyTest, Turku, Finland; Catalog No. 8NT1) (human) (chain, as listed by the source): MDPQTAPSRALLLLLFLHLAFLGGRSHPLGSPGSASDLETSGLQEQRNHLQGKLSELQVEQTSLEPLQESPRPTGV

anti-human NT-proBNP/anti-human proBNP labeled monoclonal antibody 16F3 (HyTest, Turku, Finland)
Analyte rlus [1]: 1990 rlus
Analyte rlus [2]: 11400 rlus
Analyte rlus [3]: 691 rlus
% Cross-reactivity [4]: 10.6%
% Cross-reactivity [5]: 0%
Analyte rlus [6]: 1040 rlus
Analyte rlus [7]: 1040 rlus
Analyte rlus [8]: 1040 rlus
Analyte rlus [9]: 4060 rlus
Analyte rlus [10]: 26500 rlus
Analyte rlus [11]: 861 rlus
% Cross-reactivity [12]: 9.1%
% Cross-reactivity [13]: -0.2%
% Cross-reactivity [14]: 11.9%
% Cross-reactivity [15]: -0.7%
Analyte rlus [16]: 914 rlus
Analyte rlus [17]: 631 rlus
Analyte rlus [18]: 635 rlus
% Cross-reactivity [19]: 10%
Analyte rlus [20]: 34700 rlus
Analyte rlus [21]: 320000 rlus
Analyte rlus [22]: 1090 rlus
% Cross-reactivity [23]: 9.2%
% Cross-reactivity [24]: -3.3%
Analyte rlus [25]: 13700 rlus
Analyte rlus [26]: 140000 rlus
Analyte rlus [27]: 827 rlus
Analyte rlus [28]: 640 rlus
Analyte rlus [29]: 640 rlus
Analyte rlus [30]: 640 rlus
Analyte rlus [31]: 624 rlus
Analyte rlus [32]: 630 rlus
Analyte rlus [33]: 586 rlus
Analyte rlus [34]: 621 rlus
Analyte rlus [35]: 592 rlus
Analyte rlus [36]: 587 rlus
Analyte rlus [37]: 720 rlus
Analyte rlus [38]: 696 rlus
Analyte rlus [39]: 643 rlus

anti-human NT-proBNP/anti-human proBNP labeled monoclonal antibody 24E11 (HyTest, Turku, Finland)
% Cross-reactivity [40]: 0.2%
% Cross-reactivity [41]: 0%
Analyte rlus [1]: 718 rlus
Analyte rlus [2]: 786 rlus
Analyte rlus [3]: 781 rlus
% Cross-reactivity [42]: 0.3%
% Cross-reactivity [43]: -0.4%
% Cross-reactivity [44]: 0.1%
% Cross-reactivity [45]: 0%
Analyte rlus [6]: 821 rlus
Analyte rlus [7]: 821 rlus
Analyte rlus [8]: 821 rlus
Analyte rlus [9]: 747 rlus
Analyte rlus [10]: 699 rlus
Analyte rlus [11]: 751 rlus
% Cross-reactivity [46]: 0.3%
% Cross-reactivity [47]: 0.2%
Analyte rlus [16]: 1240 rlus
Analyte rlus [17]: 357000 rlus
Analyte rlus [18]: 892 rlus
% Cross-reactivity [48]: < 1%
Analyte rlus [20]: 735 rlus
Analyte rlus [21]: 850 rlus
Analyte rlus [22]: 770 rlus
Analyte rlus [25]: 834 rlus
Analyte rlus [26]: 814 rlus
Analyte rlus [27]: 725 rlus
Analyte rlus [28]: 886 rlus
Analyte rlus [29]: 886 rlus
Analyte rlus [30]: 886 rlus
Analyte rlus [31]: 904 rlus
Analyte rlus [32]: 7380 rlus
Analyte rlus [33]: 863 rlus
Analyte rlus [34]: 938 rlus
Analyte rlus [35]: 20800 rlus
Analyte rlus [36]: 918 rlus
Analyte rlus [37]: 1090 rlus
Analyte rlus [38]: 124000 rlus
Analyte rlus [39]: 906 rlus
